Source: patent publication US20150104459A1 (published 2015)

B1: TCN-535 (5246_P19) (antibody, V domains shown)
VH: QVQLVQSGSEVKKPGTSVKVSCTASGSVFTNYGISWVRQAPGQGLEWMGGIIPLFGAAKYAQKFQGRVTITADESTKTVYMELSRLTSKDTAIYFCAKAPRVYEYYFDQWGQGTPVTVSS
VL: EIVLTQSPGTLSLSPGERATLSCRASQSVSSSQLAWYQQKPGQAPRLIIYGASTRATGIPDRFSGSGSGTDFTLTIGRLEPEDFAVFFCQQYSTSPPTFGQGTKVDFK
B2: TCN-536 (5095_N01) (antibody, V domains shown)
VH: QVQLQQWGAGLLKPSETLSLTCAVYGGSFSVSGYYWSWIRQPPGRGLEWIGEISHGGSTNYNPSLKSRVTISVDTTKNQFSLRLSSVTAADTAVYYCARGTDPDTEVYCRVGNCAAFDYWGQGSLVTVSS
VL: EIILAQSPGTLSLSPGERATLSCRASQFVSTRSLAWYQQRPGQAPRLLIYGASSRATGIPDRFSGSGSGTDFTLTISRLEPEDFAVYYCQHYGYSPRYAFGQGSKVEIK
B3: TCN-534 (5249_B02) (antibody, V domains shown)
VH: QVQLVQSGAEVKKPGSSVKVSCRESGGTFNGYTITWVRQAPGQGLEWMGGIIPMMGTVNYAQKLQGRVTITTDYFTKTAYMDLNNLRSEDTAMYYCVKIRYTGQQLLWGQGTLVTVSS
VL: DIQMTQSPSTLSASIGDRVTITCRASQSIASWLAWYQQKPGKAPKLLIYEAVNLESGVPSRFSGSGSGTDFTLTISSLQPDDFATYFCQHYGTISQTFGGGTKVEIK
B4: TCN-554 (5277_M05) (antibody, V domains shown)
VH: QVQLVQSGADLKKPGASVKVSCKASGYTFTDYYIHWVRQAPGQGLEWMGWINPESGDTKYAQKFQGRVTMTRDTSITTAYMELGRLRSDDTAVYYCARDVSTTWSWFAPWGQGTLVTVSS
VL: DIVMTQSPDSLAVSLGERATINCRSSQSIFHNSNNENYLAWYQQKPGQPPKLLIYWASTRESGVPDRFSGSGSGTDFTLTISSLQAEDVAVYFCQQYYNAPLTFGGGTKVEIK
B5: TCN-539 (5056_A08) (antibody, V domains shown)
VH: QVQLVESGGGVVQPGRSLRLSCAASEITFITYAMHWVRQAPGKGLEWVALISDDGSNKFYADSVKGRFTISRDNSKNTLYLQMNSLRAEDTAAYYCAREGVYFDSGTYRGYFDYWGQETLVTVSS
VL: EIVLTQSPATLSLSPGERATLSCRASQSVSSYLAWYQQKPGQAPRLLIYDASNRATGIPARFSGSGSGTDFTLTISSLEPEDFAVYYCQQRSHWPPITFGQGTRLEIK
B6: TCN-550 (5096_F06) (antibody, V domains shown)
VH: QVQLQESGPGLVKPSETLSLTCTVSGASINSHYWSWIRQPPGKGLEWIGYVYYSGSTTYNPSLKSRVTLSVDTSKNQFSLNLSSVTAADTAFYYCARHPYDVLTGSGDWFDPWGQGTLVTVSS
VL: SYVLTQAPSVSVAPGQTARITCGGNAIGSKKVHWYQHKAGQAPVLVVYDDTDRPSGIPERFSGSNSWSTATLTINRVEAGDEADYYCQVWDFTIDHVVFGGGTKLTVL
B7: TCN-544 (5082_A19) (antibody, V domains shown)
VH: QVQLQESGPGLVKPSETLSLTCTVSRGSIGHYFWSWIRQPPGKGLEWIGYISYSGSTKYNPSLRSRVTISVDTSKNQFSLNLNSVTATDTALYYCAREDYDILTGAGPGMEVWGQGTTVTVSS
VL: QSMLTQPPSASGTPGQRVTISCSGSSSNIGSNTVNWFKHLPGTAPKLLIYRNDLRPSGVPDRFSGSKSGTSASLAISGLQSEDEADYYCATWDDSLNGFYVFGTGTKVTVL
B8: TCN-555 (5246_L16) (antibody, V domains shown)
VH: QVQLVQSGAEVKRPGSSVKVSCTASGGIFRKNAISWVRQAPGQGLEWMGGIIAVFNTANYAQKFQNRVKITADESGNTAYMELSSLTSDDTAVYYCASHPKYFYGSGSYPDFWGQGTLVTVSS
VL: QSALTQPRSVSGSPGQSITISCTGGSSDIGASNSVSWYQQHPGKAPKLVIFDVTERPSGVPHRFSGSKSGNTASLTVSGLQPDDEADYFCCAYGGKYLVVFGGGTKVTVL
B9: TCN-563 (5237_B21) (antibody, V domains shown)
VH: QVQLAQSGAEVKRPGSSVKVSCTASGGIFRKNAISWVRQAPGQGLEWMGGIIAVFNTANYAQKFQGRVKITADESGNTAYMELSSLRSDDTAVYYCASHPKYFYGSGSYPDFWGQGTLVTVSS
VL: QSALTQPRSVSGSPGQSVTISCTGSSSDVGASNSVSWYQQHPGKAPKLVIYDVTERPSGVPHRFSGSKSGNTASLTVSGLQPEDEADYFCCAYGGKYLVVFGGGTKVTVL
B10: TCN-554 (5277_M05) (antibody, V domains shown)
VH: QVQLVQSGADLKKPGASVKVSCKASGYTFTDYYIHWVRQAPGQGLEWMGWINPESGDTKYAQKFQGRVTMTRDTSITTAYMELGRLRSDDTAVYYCARDVSTTWSWFAPWGQGTLVTVSS
VL: DIVMTQSPDSLAVSLGERATINCRSSQSIFHNSNNENYLAWYQQKPGQPPKLLIYWASTRESGVPDRFSGSGSGTDFTLTISSLQAEDVAVYFCQQYYNAPLTFGGGTKVEIK
B11: TCN-560 (5084_P10) (antibody, V domains shown)
VH: EVQLVESGGGLVQPGGSLRLSCAASGFIFRNYWMSWVRQAPGKGLEWVANIKQDGREKYYVDSLRGRVNISRDNAENSLYLHMNSLRVEDTAVYFCARARMVVVTGDGFDVWGHGTMVTVSS
VL: DIQMTQSPSSLSASVGDRVTITCRASQNIKRYFNWYQQKPGKAPKLLIYAASNLENGVPSRFSGSGSGTDFTLTISSLQPEDFATYYCQQSFSKSWTFGQGTNVDIK
B12: TCN-551 (5243_D01) (antibody, V domains shown)
VH: EVQLVQSGSEVKKPGESLKISCKGSGYSFSNYWIGWVRHMPGKGLEWMGIIYPGDSDTRYSPSFQGQVTMSADKSSSTVYLQWSSLKASDTAIYYCARRGGHSFGYGSGGDTHSEFDSWGQGTLVTVSS
VL: QSVLTQSPSVSAAPGQKVTISCSGSDSNIGDYFVCWYQHLPGKPPQLLIYENNKRPSGIPDRFSGSKSGTSATLGITGIQTGDEADYYCATWDGSLSAWVFGGGTKLTVL
B13: TCN-553 (5261_C18) (antibody, V domains shown)
VH: QVQVVQSGTEVKKPGSSVKVSCQTSGGRFMSYAITWVRQAPGQGLEWMGGIVPVFGTANYAQKFQGRVTITTDDSTRTAYMELSSLRSEDTAVYYCGFRYGSGYGFDSWGQGTLVTVSS
VL: EIVLTQSPGTLSLSPGERATLSCRASQSVSSSYLAWYQKKPGQAPRLLIYGASTRATGIPDRFTGSGSGTDFTLSISRLEPEDFAVYYCQHFGTSVFTFGGGTKVEIK
B14: TCN-523 (5248_A17) (antibody, V domains shown)
VH: QVQLVQSGAEVKKPGSSVKVSCKASGGSFSNYAFSWVRQAPGQGLEWMGGTIPLLGTTNYAQKFQGRVTISADQFTSTAYMELGSLRSEDTAVYYCTRRKMTTAFDSWGQGTLVTVSS
VL: QPVLTQPPSASASLGASVTLTCTLSSAYSNYKVDWYQQRPGKGPRFVMRVGTGGIVGSKGDGIPDRFSVLGSGLNRYLTIKNIQEEDESDYHCGADHGSGSNFVSPYVFGGGTKLTVL
B15: TCN-552 (5249_I23) (antibody, V domains shown)
VH: QVQVVQSGAEVKKPGSSVRVSCQASGGTFMNYAIIWVRRAPGQGLEWMGGIIPVFPTPNYAQMFQGRVTISTDESRSTSFLELTNLRYEDTAVYYCARRIYHGGNSGFDFWGQGTLVTVSS
VL: EIVLTQSPATLSLSPGERATLSCRASQSVGNYLAWYQQKPGQAPRLLIYDSSNRAPGIPARFSGSGSGTDFTLTISSLAPEDFAVYYCQQRSKWPPMYSFGHGTKLEIK

target: hemagglutinin (HA) of live influenza A/Solomon Islands/3/06 (H1N1) virus (influenza A virus A/Solomon …); test: cell-based or functional assay

Point of comparison: B1, “% Neutralization” value 88.6%. Against it:
- B2 — lower, 81.6%
- B3 — lower, 65.7%

target: hemagglutinin (HA) of live influenza A/Wisconsin/67/05 (H3N2) virus (influenza A virus A/Wisconsin/67/2005 …); test: cell-based or functional assay

Point of comparison: B6, “% Neutralization” value 100%. Against it:
- B4 — the same, 100%
- B1 — lower, 0%
- B2 — lower, 99.9%
- B3 — lower, 0%
- B5 — lower, 99%
- B7 — lower, 97%

target: Hemagglutinin of influenza A/Solomon Islands/3/06 (H1N1) on whole virions (Influenza A virus A/Solomon …); test: cell-based or functional assay

Point of comparison: B8, “% Neutralization” value 48%. Against it:
- B9 — higher, 78%
- B10 — lower, 42%
- B11 — higher, 94%
- B12 — higher, 100%
- B13 — higher, 87%
- B14 — higher, 69%
- B15 — higher, 57%
